Source: patent US12503443B2, “Process-scale synthesis of a plasma kallikrein inhibitor” (BioCryst Pharmaceuticals, Inc., priority 2019, dated 2025)

Legend:
human plasma kallikrein = human plasma kallikrein (Homo sapiens, UniProt P03952); experiment: in vitro biochemical assay measuring inhibition of human plasma kallikrein activity; conditions: protocols and results in WO 2015/134998 and US 2017/0073314 A1
Description: Compound I was assayed in an in vitro biochemical assay measuring inhibition of human plasma kallikrein activity. Experimental protocols and results of the assays are found in WO 2015/134998 and U.S. Patent Application Publication No. 2017/0073314 A1 (both incorporated by reference).

[1] = tested on: patients with hereditary angioedema (HAE); conditions: human, in vivo; cited from earlier work
rat models of arthritis = conditions: cited from earlier work
[2] = tested on: mouse model of middle cerebral artery occlusion (MCAO); conditions: cited from earlier work
[3] = tested on: lipopolysaccharide (LPS)- or bacterial-induced sepsis in animals; conditions: cited from earlier work
sepsis patients = conditions: cited from earlier work

Chain of human plasma kallikrein (P03952 391-638 limits assumed): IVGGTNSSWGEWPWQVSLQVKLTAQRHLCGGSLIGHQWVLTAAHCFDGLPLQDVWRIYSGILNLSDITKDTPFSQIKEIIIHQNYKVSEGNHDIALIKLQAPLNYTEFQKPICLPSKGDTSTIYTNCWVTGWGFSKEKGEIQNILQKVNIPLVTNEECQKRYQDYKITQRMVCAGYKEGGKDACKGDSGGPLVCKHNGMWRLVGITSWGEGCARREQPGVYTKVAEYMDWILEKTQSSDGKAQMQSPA
Chain of human plasma kallikrein (P03952 20-390 partner limits assumed): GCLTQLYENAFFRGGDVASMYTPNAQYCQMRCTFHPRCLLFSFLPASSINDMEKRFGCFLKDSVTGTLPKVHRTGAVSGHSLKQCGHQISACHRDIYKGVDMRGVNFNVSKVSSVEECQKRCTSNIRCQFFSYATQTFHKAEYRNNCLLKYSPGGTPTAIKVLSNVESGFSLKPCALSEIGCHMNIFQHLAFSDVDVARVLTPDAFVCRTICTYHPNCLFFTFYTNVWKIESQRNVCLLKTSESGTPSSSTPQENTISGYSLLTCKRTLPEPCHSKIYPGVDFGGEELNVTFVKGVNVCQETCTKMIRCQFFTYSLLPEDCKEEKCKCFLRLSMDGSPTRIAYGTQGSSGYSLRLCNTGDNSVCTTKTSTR

## N#Cc1cccc([C@@H](NCC2CC2)c2ccc(F)c(NC(=O)c3cc(C(F)(F)F)nn3-c3cccc(CN)c3)c2)c1 [Compound I]
Human plasma kallikrein
  inhibition of human plasma kallikrein activity: potent inhibitor

## NC(N)=NCCC[C@@H](N)C(=O)N[C@@H](CCCN=C(N)N)C(=O)N1CCC[C@H]1C(=O)N1C[C@H](O)C[C@H]1C(=O)NCC(=O)N[C@@H](Cc1cccs1)C(=O)N[C@@H](CO)C(=O)N1Cc2ccccc2C[C@@H]1C(=O)N1[C@H](C(=O)N[C@@H](CCCN=C(N)N)C(=O)O)C[C@@H]2CCCC[C@@H]21 [Icatibant]
[1]
  treating HAE: effective

## Cl.NCC1CCC(C(=O)N[C@@H](Cc2ccccc2)C(=O)Nc2ccc(CC(=O)O)cc2)CC1 (stereo partly shown) [PKSI-527]
Rat models of arthritis
  joint swelling: reduce

B1: C1-inhibitor: physiological inhibitor of kallikrein in human plasma (protein, UniProt P05155 23-500, looked up)
Plasma protease C1 inhibitor: NPNATSSSSQDPESLQDRGEGKVATTVISKMLFVEPILEVSSLPTTNSTTNSATKITANTTDEPTTQPTTEPTTQPTIQPTQPTTQLPTDSPTQPTTGSFCPGPVTLCSDLESHSTEAVLGDALVDFSLKLYHAFSAMKKVETNMAFSPFSIASLLTQVLLGAGENTKTNLESILSYPKDFTCVHQALKGFTTKGVTSVSQIFHSPDLAIRDTFVNASRTLYSSSPRVLSNNSDANLELINTWVAKNTNNKISRLLDSLPSDTRLVLLNAIYLSAKWKTTFDPKKTRMEPFHFKNSVIKVPMMNSKKYPVAHFIDQTLKAKVGQLQLSHNLSLVILVPQNLKHRLEDMEQALSPSVFKAIMEKLEMSKFQPTLLTLPRIKVTTSQDMLSIMEKLEFFDFSYDLNLCGLTEDPDLQVSAMQHQTVLELTETGVEAAAASAISVARTLLVFEVQQPFLFVLWDQQHKFPVFMGRVYDPRA
[2]
  infarct size: reduced
[3]
  lesions: reduce
  vascular permeability in multiple organs: reduce
Sepsis patients
  clinical outcome in sepsis patients: Clinical improvement
